Consider one substance from patent US11319374B2, “Inhibitors of prototypic galectin dimerization and uses thereof” (INSTITUT NATIONAL DE LA RECHERCHE SCIENTIFIQUE, priority 2015, dated 2022).

Series [1] has as its target T1, recombinant human Gal-1 (hGal-1) (Homo sapiens, UniProt P09382).
T1 construct: made in house; host or cells: E. coli BL21 (DE3)
Briefly: hGal-1 dimer disruption (galectin selectivity control), low-SDS Western blotting. To be noted: recombinant hGal-1, FIG. 2C. It counts as biochemical. The protocol: Production of recombinant hGal-7 and hGal-1. Human Gal-7 cDNA was cloned into pET-22b(+) using Ndel and HindIII restriction enzymes. Human pET-Gal-1 vector was generously donated by Dr. S. Sato (McGill University, QC, Canada). The proteins were produced in E. coli BL21 (DE3) cells at 37° C. Isopropyl p-D-1-thiogalactopyranoside (IPTG) (1 mM) was added to the bacterial culture at OD600nm=0.6-0.7 and then incubated for 4 h at 37° C. to allow protein production. Bacterial pellets were resuspended in lysis buffer (0.7 mg/mL lysozyme, 10 mM Tris pH 8, 100 mM NaCl, 1 mM EDTA, 1 mM DTT and a protease inhibitor cocktail) and then incubated for 1 h at 37° C. prior to centrifugation for 30 min at 15,000×g (4° C.). The supernatant was then filtered with 500 mL bottle top filter ([…]) (Corning®, New York, N.Y., USA) and then ran through a lactose-agarose column (Sigma®, St. Louis, Mo., USA). The protein was eluted in 1 mL fractions with 150 mM lactose solution. Purified fractions were analyzed by SDS-PAGE. […]
To determine whether these peptides could inhibit the formation of the hGal-7 homodimer, recombinant hGal-7 (0.5 μM) was incubated with increasing concentrations of hGal-7(13-25), hGal-7(85-102), hGal-7(95-108) or hGal 7(129-135) and the formation of homodimers was measured. […]

Series [2] concerns Jurkat T cells. Nature of the series: hGal-7-induced apoptosis of Jurkat T cells, PARP-1 cleavage by Western blotting. In kind it is cell-based. To be noted: 4 h at 37° C., serum-free RPMI, FIG. 5A. The protocol:
Western blotting. For the apoptosis tests, whole-cell extracts were homogenized and resuspended in RIPA buffer (Thermo Fisher Scientific®, Rockford, Ill., USA) containing protease inhibitors (Roche®, Laval, QC, Canada). Equal amounts of whole-cell extracts (25 μg) were separated on SDS-PAGE and transferred onto nitrocellulose membranes (Bio-Rad Laboratories®). The membranes were first blocked with 5% milk [w/v] in TBS/0.5% Tween® 20 [v/v] for 1 h at room temperature and subsequently blotted overnight in a solution of TBS containing 3% BSA [w/v] and 0.5% Tween 20 [v/v]. The following antibodies were used: a rabbit anti-Poly-(ADP-ribose) polymerase (PARP)-1 (p25) polyclonal antibody (1:5000; Epitomics®, Burlingame, Calif., USA) and a mouse anti-β-actin (1:10000; Sigma-Aldrich®, St-Louis, Mo., USA). Secondary antibodies consisted of horseradish peroxidase-conjugated donkey anti-rabbit (GE Healthcare®, Buckinghamshire, England) and sheep anti-mouse (GE Healthcare®) IgG. […]
It was thus tested whether hGal-7(129-135) could modulate the binding of hGal-7 on Jurkat T cells, a cell model that is commonly used to test the pro-apoptotic activity of galectins. For this purpose, recombinant hGal-7 was labeled with fluorescein isothiocyante (FITC) and its binding on the surface of Jurkat T cells was measured by flow cytometry in absence or presence of increasing concentrations of hGal-7(129-135). […]
Background: Immunoblotting shows a protein as a band on a membrane.

For series [3], the system named is Jurkat T cells. Nature of the series: hGal-7-induced apoptosis of Jurkat T cells, Annexin V/PI flow cytometry. It counts as cell-based. The following applies: 4 h at 37° C., FIGS. 5B and 5C. How it is done:
(§1) Apoptosis assays with Annexin V/PI staining. Apoptosis was measured by flow cytometry using FITC-labeled Annexin V (Biolegend®, San Diego, Calif., USA) and propidium iodide. Briefly, the corresponding dilutions of recombinant hGal-7 and hGal-7(129-135) peptides were pre-incubated for 1 h at 4° C. in serum-free RPMI 1640 medium. 2.5×10^5 Jurkat cells were then harvested in the same medium and incubated with their corresponding dilutions at 37° C. for 4 h. Cells were washed once in PBS and once in binding buffer (0.01 M HEPES, 0.14 M NaCl, 2.5 mM CaCl2, pH 7.4). Cells were then incubated for 15 min with Annexin V in the dark at room temperature. A total of 400 μL of binding buffer containing 0.25 μg/mL propidium iodide was added to the cells before analysis by flow cytometry.
It was thus tested whether hGal-7(129-135) could modulate the binding of hGal-7 on Jurkat T cells, a cell model that is commonly used to test the pro-apoptotic activity of galectins. For this purpose, recombinant hGal-7 was labeled with fluorescein isothiocyante (FITC) and its binding on the surface of Jurkat T cells was measured by flow cytometry in absence or presence of increasing concentrations of hGal-7(129-135). […] The effect of hGal-7(129-135) was specific, statistically significant (FIG. 4B), and consistent with the increased number of monomers, which bind to surface glycosylated receptors through their CRDs. […]
On the technique in general: Flow cytometry measures light scatter and fluorescence of single cells or particles in a stream.

The subject of series [4] is Jurkat T cells. Nature of the series: Apoptosis/toxicity of peptide alone in Jurkat T cells, Annexin V/PI. In kind it is cell-based. The protocol:
FIG. 8A: Flow cytometry histogram showing propidium iodide (PI) (FL3) labeling of Jurkat T cells without or with 200 μM of hGal-7(129-135). FIG. 8B: Histogram showing the average percentage of Annexin-V (AV) positive Jurkat T cells in the presence of increasing concentrations of […]. FIG. 8C: Flow cytometry histogram showing PI (FL3) labeling of Jurkat T cells without or with 200 μM of PACAP28-38 FIG. 8D: Histogram showing the average percentage of AV-positive Jurkat T cells in the presence of increasing concentrations of PACAP28-38. The percentage of cell death was obtained as described above. Error bars represent standard deviation. Significance was calculated with respect to AF samples. Results are representative of three independent experiments.
as §1

T1 sequence (P09382 2-135 limits assumed): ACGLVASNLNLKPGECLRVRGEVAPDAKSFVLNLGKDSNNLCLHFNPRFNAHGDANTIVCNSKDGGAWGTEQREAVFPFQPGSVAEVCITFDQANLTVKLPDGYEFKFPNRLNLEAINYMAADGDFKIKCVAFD

For the substance “H-Leu-Asp-Ser-Val-Arg-Ile-Phe-NH2 (H-LDSVRIF-NH2; listed as Homo sapiens) [hGal-7(129-135), peptide corresponding to residues 129-135 of hGal-7]”, the “effect on hGal-1 dimer” value in series [1] was “No such effect was observed”. Besides, the “inhibition of hGal-7-induced apoptosis, PARP-1 cleavage” value in series [2] is recorded as “inhibited the ability of hGal-7 to induce apoptosis in Jurkat T cells”. Besides, the “inhibition of hGal-7-induced apoptosis, Annexin V/PI staining” value in series [3] is “confirmed”. Further, in series [4] (PI labeling at 200 μM, Annexin V at increasing concentrations, FIGS. 8A to 8D), the “toxicity in Jurkat T cells” value was “do not induce toxicity in Jurkat T cells”. For the same substance, the “induction of apoptosis by peptide alone” value in series [4] (peptide alone, FIG. 8) was “did not induce apoptosis in Jurkat T cells”.
